Experimental data from patent US11464871B2, “Methods and systems for polymer precipitation and generation of particles” (priority 2012, dated 2022).

Assay: Physical stability and re-dispersion of chilled-acetone precipitated polymer conjugate particles
Assay type: physicochemical
Description: A 600 mL beaker of 300 mL of acetone with magnetic stir bar was pre-chilled to −78° C. in a dry ice/acetone bath. A solution of polymer conjugate HG6 (2 grams), obtained without further preparation from Example 3, was added dropwise over a 4 minute period into the beaker with chilled acetone with stirring and maintained in the dry ice/acetone bath. Individual free flowing polymer particles (resembling chards or flakes) were formed (FIG. 3) and remained in suspension under stirring conditions. After 25 minutes, the chilled acetone was decanted and replaced with fresh pre-chilled acetone (300 mL at −78° C.) and stirred for an additional 30 minutes to afford a suspension of polymer particles in chilled acetone.
From the polymer particles/chilled acetone suspension further steps were conducted. First, a portion of polymer particles (still in acetone) was removed from the suspension and allowed to dry at room temperature. […] A second portion of polymer particles (still in acetone) was removed from the suspension and frozen in liquid nitrogen (N2) and lyophilized for 24 hours.

Poly(CDDCys-PA-PEG)-Gly-CPT [HG6]
Re-dispersion of lyophilized polymer particles in water (frozen in liquid N2, lyophilized 24 hours, water, even after 24 hours and sonication): did not re-disperse in water | Physical stability of lyophilized polymer particles in ambient environment (lyophilized particles exposed to the ambient environment): melted into yellow oil | Re-dispersion of lyophilized polymer particles with acetone (lyophilized particles, with addition of acetone): re-dispersion was successful | Physical stability of precipitated polymer particles allowed to dry (portion removed from acetone suspension, dried at room temperature): melted into yellow oil | Physical stability of polymer particle suspension in acetone (still in acetone, warmed to room temperature for 72 hours): remained a stable free flowing suspension
